The values below come from the RNAGym collection of RNA variant scans (doi:10.7554/elife.90254).

B1: LINE1-mini (parent)
chain: GGCAGAGCUCAACACAGCGUGGCAAAGUGGCUGUGGCUAGACUGCC

In this series the parent is B1. The series can be described thus: self-cleavage, relative activity (ratio to wild type); higher = more cleavage; in vitro, sequencing; the parent is a self-cleaving ribozyme.
On to A24U G29C, for which the self-cleavage was determined as 0.58.

For A24U G29U, the self-cleavage was determined as 1.84.

In the case of A25G G40U, the self-cleavage is 0.07. Regarding A25G G40A, the self-cleavage came to 0.04.

Regarding A25G G40C, the self-cleavage is 0.06. For the variant A26G A39C, the self-cleavage turned out to be 0.18. With A26G A39G, the self-cleavage worked out at 0.05. As for A26G A39U, the figure is 0.5; as for A26C, 0.9.

A26G: the self-cleavage was found to be 0.87. As to A26G G36A, the self-cleavage worked out at 0.28. For the variant A26G G36C, the self-cleavage stood at 0.07.

For A26G G36U, the self-cleavage turned out to be 0.12. On to A26C G40A, for which the self-cleavage was determined as 0.12. Take A26C G40C: the self-cleavage was 0.07. For A26C G40U the value was 0.09.

As to A25G G35U, the self-cleavage is 0.06.

With A25G G35A, the self-cleavage was determined as 0.11.

For A25G G35C, the self-cleavage was found to be 0.04. Consider A25C U32G, for which the self-cleavage amounted to 0.05. As for A25C U32C, the figure is 0.25.

Take A25C U32A: the self-cleavage was found to be 0.05. A25G U32G: the self-cleavage came out at 0.12.

Take A25G U32C: the self-cleavage is 0.06. Consider A25G U32A, for which the self-cleavage came out at 0.11. As for A25U C37U, the figure is 0.03; as for A25U C37G, 0.02; as for A25U C37A, 0.06. Regarding A24U U28C, the self-cleavage came to 0.69. As for A24U U28A, the figure is 1.25; as for A24U U28G, 0.39.

As for A26G C31A, the self-cleavage is 0.11. In the case of A26G C31U, the self-cleavage turned out to be 0.15. A26G C31G: the self-cleavage is 0.06. Regarding A25G U38G, the self-cleavage worked out at 0.01. As for A25G U38A, the self-cleavage was 0.46. In the case of A25G U38C, the self-cleavage stood at 0.14.

A25G A41G: the self-cleavage turned out to be 0.26. For the variant A25G A41U, the self-cleavage was found to be 0.19. A25G A41C: the self-cleavage stood at 0.04. Take A26C U43A: the self-cleavage was 0.07. With A26C U43C, the self-cleavage turned out to be 0.25.

Regarding A26C U43G, the self-cleavage amounted to 0.12.

In the case of A26G G27A, the self-cleavage turned out to be 0.99. As for A26G G27C, the self-cleavage amounted to 1.15. Consider A26G G27U, for which the self-cleavage is 0.94. Consider A25G G44C, for which the self-cleavage amounted to 0.19.

In the case of A25G G44A, the self-cleavage was 0.21. As to A25G G44U, the self-cleavage came out at 0.28.

In the case of A26C U28C, the self-cleavage was 0.4. Consider A26C U28G, for which the self-cleavage came out at 0.66. For A26C U28A the value was 0.53; for A25G U34A, 0.06; for A25G U34C, 0.07. On to A25G U34G, for which the self-cleavage turned out to be 0.12. For A25U U43A, the self-cleavage was determined as 0.21. Take A25U U43G: the self-cleavage was determined as 0. With A25U U43C, the self-cleavage is 0.1.

As to A25C G30C, the self-cleavage is 1.64. With A25C G30A, the self-cleavage was 0.44. For A25C G30U the value was 1.11; for A24U G33U, 0.08. On to A24U G33A, for which the self-cleavage was found to be 0.05. With A24U G33C, the self-cleavage stood at 0.06. As for A25U G27U, the self-cleavage was found to be 0.74. Regarding A25U G27C, the self-cleavage was found to be 0.52. As to A25U G27A, the self-cleavage was found to be 0.59. As for A25U G29U, the figure is 2.16; as for A25U G29C, 0.38.

Consider A25U G29A, for which the self-cleavage was 0.79. As for A25G G36A, the figure is 0.15.

Consider A25G G36U, for which the self-cleavage amounted to 0.05. As for A25G G36C, the figure is 0.04. On to A25G U28C, for which the self-cleavage was found to be 0.84. With A25G U28A, the self-cleavage worked out at 1.01.

For the variant A25G U28G, the self-cleavage worked out at 0.57. Regarding A25C A26U, the self-cleavage was 0.68. Regarding A25C A26C, the self-cleavage was found to be 1.13. Take A25C C37U: the self-cleavage came out at 0.06.

Turning to A25C C37A, the self-cleavage stood at 0.11. A25C C37G: the self-cleavage is 0.06.

For the variant A25U U38G, the self-cleavage came out at 0.03. Regarding A25U U38C, the self-cleavage was determined as 0.31. A25U U38A: the self-cleavage was 0.6. For A26C A41G, the self-cleavage came to 0.23.

Take A26C A41U: the self-cleavage came to 0.72. Turning to A26C A41C, the self-cleavage turned out to be 0.04. Consider A25G G27U, for which the self-cleavage worked out at 0.48.

Regarding A25G G27A, the self-cleavage was 0.37. As to A25G G27C, the self-cleavage was determined as 0.16. As to A25U A41U, the self-cleavage is 0.6.

Take A25U A41C: the self-cleavage amounted to 0.07. A25U A41G: the self-cleavage stood at 0.38. For A24U U38C the value was 1.36; for A24U U38A, 0.34; for A24U U38G, 0.02. As to A25C A39U, the self-cleavage came out at 0.52. On to A25C A39G, for which the self-cleavage turned out to be 0.07.

Consider A25C A39C, for which the self-cleavage came to 0.08. Consider A25C U34A, for which the self-cleavage stood at 0.12. As to A25C U34C, the self-cleavage worked out at 0.08. For A25C U34G the value was 0.06; for A25U U32A, 0.04. For A25U U32C the value was 0.27; for A25U U32G, 0.3. For A25U C46G the value was 0.66; for A25U C46A, 1.01. Take A25U C46U: the self-cleavage was found to be 1.04. On to A25C U38A, for which the self-cleavage came out at 0.22. A25C U38C: the self-cleavage amounted to 0.46. For A25C U38G the value was 0.02; for A26C G36A, 0.14. For A26C G36U the value was 0.07. As for A26C G36C, the self-cleavage is 0.11. For A25U G35U, the self-cleavage is 0.16.

As to A25U G35C, the self-cleavage was determined as 0.09. For the variant A25U G35A, the self-cleavage stood at 0.12. As for A25C G44C, the figure is 0.23; as for A25C G44U, 0.16. A25C G44A: the self-cleavage was found to be 0.42. Regarding A25G C37U, the self-cleavage came to 0.06. As for A25G C37G, the self-cleavage stood at 0.03. In the case of A25G C37A, the self-cleavage came to 0.05. As for A24U G40U, the self-cleavage was 0.19. A24U G40A: the self-cleavage turned out to be 0.14. As for A24U G40C, the self-cleavage came to 0.11. As to A26C C37A, the self-cleavage is 0.05. On to A26C C37G, for which the self-cleavage came out at 0.02. On to A26C C37U, for which the self-cleavage was 0.07. In the case of A25G C45U, the self-cleavage was found to be 0.45. Turning to A25G C45A, the self-cleavage is 0.86.

Turning to A25G C45G, the self-cleavage stood at 0.17.

Turning to A24U G27C, the self-cleavage came out at 0.61. Consider A24U G27U, for which the self-cleavage was 0.8. As for A24U G27A, the figure is 0.92; as for A25U U28A, 0.5; as for A25U U28G, 0.82. On to A25U U28C, for which the self-cleavage is 1.19. Turning to A26G G29U, the self-cleavage was found to be 1.23. As to A26G G29A, the self-cleavage came out at 0.36. For A26G G29C the value was 0.89; for A26C U34C, 0.33.

Take A26C U34G: the self-cleavage worked out at 0.32. For A26C U34A, the self-cleavage amounted to 0.1. Regarding A24U C46U, the self-cleavage amounted to 1.09. On to A24U C46A, for which the self-cleavage stood at 2.01. Take A24U C46G: the self-cleavage came to 1.03.

Turning to A26C G33A, the self-cleavage came out at 0.17. On to A26C G33U, for which the self-cleavage was 0.08. Regarding A26C G33C, the self-cleavage was 0.07. As for A25U C45U, the self-cleavage was found to be 2.13. With A25U C45G, the self-cleavage is 0.19. As to A25U C45A, the self-cleavage is 0.41. For the variant A24U C45G, the self-cleavage was determined as 0.3. A24U C45U: the self-cleavage worked out at 0.91. Consider A24U C45A, for which the self-cleavage turned out to be 0.31. As for A26G G33A, the self-cleavage was 0.09. For A26G G33C the value was 0.08; for A26G G33U, 0.07. Take A25G U43C: the self-cleavage amounted to 0.1. On to A25G U43A, for which the self-cleavage amounted to 0.13. Consider A26G C46G, for which the self-cleavage is 1.53. Take A26G C46A: the self-cleavage was found to be 1.08. With A26G C46U, the self-cleavage worked out at 0.58. Regarding A26G C45U, the self-cleavage was 0.77.

Consider A26G C45A, for which the self-cleavage came to 1.06. As for A26G C45G, the figure is 0.31.
